From publication PMC8017925, “Structural basis for differential recognition of phosphohistidine-containing peptides by 1-pHis and 3-pHis monoclonal antibodies” (Proceedings of the National Academy of Sciences of the …, 2021)
Values belong to the molecule of their own block, whether it stands above or below them.

Columns and labels:
[1] = substrate: SCS peptide, phosphorylated, 3-pHis form; experiment: BLI; N-terminally biotinylated peptides (20 nM) on streptavidin biosensors, varying concentrations of Fab in solution; 50 mM Hepes pH 8.0, 150 mM NaCl, 0.05% Tween-20, 0.2% BSA; association 120 s, dissociation 200 s; global fit to a 1:1 Langmuir model; Octet RED96e; in triplicate
[2] = substrate: SCS peptide, 3-pHis form; experiment: BLI; biotinylated pHis peptides (20 nM) on streptavidin biosensors, Fab in solution at varying concentrations; 50 mM Hepes pH 8.0, 150 mM NaCl, 0.05% Tween-20, 0.2% BSA; Octet RED96e; global fit to a 1:1 Langmuir model
[3] = molecular target: T1, ACLY peptide, 3-pHis form; experiment: as above
T1 sequence (peptide, biotin on the N-terminus; C-terminal amide; 3-phosphohistidine at position 5): VQFGHAGAC

[4] = molecular target: ACLYana-3-pTza peptide (AGAG-3-pTza-AGAG); experiment: BLI; N-terminally biotinylated peptides (20 nM) on streptavidin biosensors, varying concentrations of Fab in solution; 50 mM Hepes pH 8.0, 150 mM NaCl, 0.05% Tween-20, 0.2% BSA; association 120 s, dissociation 200 s; global fit to a 1:1 Langmuir model; Octet RED96e; in triplicate
[5] = molecular target: ACLY peptide, phosphorylated, 3-pHis form; experiment: as above
[6] = molecular target: T2, ACLYana-3-pHis peptide (AGAG-3-pHis-AGAG); experiment: as above
T2 sequence (peptide, 3-phosphohistidine at position 5; biotin on the N-terminus): AGAGHAGAG

[7] = substrate: SCS peptide, 1-pHis form; experiment: BLI; biotinylated pHis peptides (20 nM) on streptavidin biosensors, Fab in solution at varying concentrations; 50 mM Hepes pH 8.0, 150 mM NaCl, 0.05% Tween-20, 0.2% BSA; Octet RED96e; global fit to a 1:1 Langmuir model
[8] = molecular target: T3, NM23 peptide, 1-pHis form; experiment: as above
T3 sequence (peptide, biotin on the N-terminus; C-terminal amide; 1-phosphohistidine at position 5): RNIIHGSDS

[9] = molecular target: T4, ACLY peptide, 1-pHis form; experiment: as above
T4 sequence (peptide, biotin on the N-terminus; C-terminal amide; 1-phosphohistidine at position 5): VQFGHAGAC

[10] = molecular target: T5, Common-His peptide, 1-pHis form; experiment: as above
T5 sequence (peptide, biotin on the N-terminus; C-terminal amide; 1-phosphohistidine at position 5): GEQLHDLNA

[11] = system: ACLYana-1-pHis peptide (AGAG-1-pHis-AGAG); experiment: BLI binding kinetics of 1-pHis Fabs with affinity-purified pHis peptide; details: for ka / kd / Kd: BLI, 1:1 Langmuir global fit, triplicate; for ka / kd: affinity-purified ACLYana-1-pHis peptide; for Kd: ACLYana phosphorylated with phosphoramidate (8 h, 23 °C), 1-pHis isomer affinity-purified on 1-pHis IgG column, immobilized on streptavidin biosensors, Hepes pH 8.0; for affinity to 1-pHis peptides, times weaker than the 1-pTza peptides: ratio of BLI KD, 1-pHis versus 1-pTza peptide
Method: (§1) Biolayer interferometry (BLI) studies were performed to determine the relative affinity of pHis Fabs to in situ phosphorylated His peptides versus the phosphomimetic substrates. The N-terminally biotinylated peptides were immobilized on streptavidin biosensors and the rate of association (ka) and dissociation (kd) were determined by varying the pHis Fab concentration. Equilibrium dissociation constants (KD) were determined by fitting the experimental data to a 1:1 Langmuir binding model. ACLYana-1-pTza and ACLYana-3-pTza peptides were used to determine affinity to 1-pHis and 3-pHis Fabs, respectively (Fig. 3 A–E and Table 1). […] The two isomers were separated from each other by passing the reaction through affinity columns containing 1-pHis mAbs using SC1-1 or SC50-3 IgGs or 3-pHis mAbs using SC39-4, SC44-8, and SC56-2 IgGs. The eluates thus contained either predominantly 1-pHis or 3-pHis peptides. These peptides were used to determine the affinity to their respective isomer class of pHis Fabs (Fig. 3 F–J, Table 1, and SI Appendix, Fig. S5). […] This experimental observation is well supported by the higher number of hydrogen bonds that support the SC44-8:3-pTza interaction compared to other pHis Fabs (SI Appendix, Table S5). […] There are at least three reasons for the lower affinity of the mAbs for pHis peptides compared to pTza peptides: The continuous hydrolysis of phosphate from the pHis peptides during the course of the experiment (SI Appendix, Fig. S6), a reduction in the number of hydrogen bond interactions due to one less nitrogen in the imidazole ring compared to triazolyl ring (Fig. 4 and SI Appendix, Fig. S8), and inherently different electronic properties of the imidazole and triazolyl rings in His and Tza, respectively ([20]).
(§2) Fig. 3. Binding kinetics of pHis Fabs with cognate pTza and pHis peptides. BLI studies of immobilized peptides (ACLYana-1/3-pTza and phosphorylated ACLYana) with varying concentrations of the pHis Fabs were carried out in triplicate on an Octet Red96e instrument (FortéBio). SC1-1 (A) and SC50-3 (B) pHis Fab interaction with their ACLYana-1-pTza peptides. SC39-4 (C), SC44-8 (D), and SC56-2 (E) pHis Fabs interactions with ACLYana-3-pTza peptides. SC1-1 (F), SC50-3 (G), SC39-4 (H), SC44-8 (I), and SC56-2 (J) pHis Fabs interactions with their affinity-purified ACLYana-pHis peptides are represented, Right. The experimental data are represented in the black dashed lines and the nonlinear least-squares fitting was represented in the red continuous lines. The χ^2 for the goodness of fit is under 1.0 for the all the plots.
(§3) The binding kinetics of pHis Fabs with the peptides (pTza and pHis) were evaluated with an Octet RED96e (FortéBio). Streptavidin-coated biosensors (FortéBio) were presoaked in buffer containing 50 mM Hepes pH 8.0, 150 mM NaCl, 0.05% Tween-20, and 0.2% BSA for 15 min. The biotinylated pTza peptides or pHis peptides (20 nM) with and without phosphoramidate treatment were coated onto these streptavidin biosensors and analyzed for their binding to varying concentrations of the pHis Fabs with an association time of 120 s and dissociation time of 200 s. The entire set of experiments was repeated three times. The data were analyzed using the Octet software (FortéBio) and the rates of association and dissociation were obtained by global fitting data to the 1:1 Langmuir interaction model.
Supplementary methods and materials
Peptide Synthesis. Peptides used for the crystallization were synthesized at Sanofi as described in Fuhs et al. (1). Peptides used in the DSF and BLI experiments were synthesized by the Salk Peptide Synthesis Core. These peptides were N-terminally biotinylated and C-terminally amidated. They were synthesized using standard Fmoc chemistry on a Gyros Protein Technologies Tribute peptide synthesizer with UV monitoring. Following the deprotection, peptides were analyzed by mass spectrometry and analytical HPLC by the Proteomics Core at […]
Salk. […]

[12] = molecular target: ACLYana-1-pTza peptide (AGAG-1-pTza-AGAG); experiment: BLI binding kinetics of 1-pHis Fabs with cognate pTza peptide; details: triplicate; for Kd: BLI Octet RED96e, N-terminally biotinylated peptide (20 nM) on streptavidin biosensors, varying Fab concentration, 50 mM Hepes pH 8.0, 150 mM NaCl, 0.05% Tween-20, 0.2% BSA, association 120 s, dissociation 200 s, global fit 1:1 Langmuir; for ka / kd: BLI, immobilized biotinylated ACLYana-1-pTza, 1:1 Langmuir global fit
Method: as §1, §2, §3

[13] = molecular target: T6, ACLYana-1-pHis peptide (AGAG-1-pHis-AGAG); experiment: BLI; N-terminally biotinylated peptides (20 nM) on streptavidin biosensors, varying concentrations of Fab in solution; 50 mM Hepes pH 8.0, 150 mM NaCl, 0.05% Tween-20, 0.2% BSA; association 120 s, dissociation 200 s; global fit to a 1:1 Langmuir model; Octet RED96e; in triplicate
T6 sequence (peptide, 1-phosphohistidine at position 5; biotin on the N-terminus): AGAGHAGAG

[14] = molecular target: ACLYana-1-pTza peptide (AGAG-1-pTza-AGAG); experiment: as above

B1: SC44-8 Fab (Fab, V domains shown)
VH: QSVKESGRGLVQPGGSLTLTCTASGFSIDSYGFSWVRQAPGKGLEHIGYLTAGGRAFYASWAKSRSTITRNTNENTVTLKMTSLTAADTATYFCAKLGSGNPVAIWGPGTLVTVSS
VL: QVLTQTPSFTSAAVGGTVTINCQSSQSVWRNKNLAWYQQKPGQPPKRLIYAIATLDSGVPSRFSGSGSGTQFTLTISDVQCDDAATYYCVGHYGSENDAYYAFGGGTEVVVK
- BLI signal intensity for the association [1]: 0.5 nm
- Kd [2]: 467 nM
- koff [2]: 0.0137 s⁻¹
- kon [2]: 29300 M⁻¹ s⁻¹
- Kd [3]: 348 nM
- koff [3]: 0.00972 s⁻¹
- kon [3]: 28000 M⁻¹ s⁻¹
- Kd [4]: 0.235 nM
- koff [4]: 3.66e-05 s⁻¹
- kon [4]: 156000 M⁻¹ s⁻¹
- BLI signal intensity for the association [5]: 0.5 nm
- BLI signal intensity for the association [6]: 2 nm
- Kd [6]: 18.2 nM
- koff [6]: 0.0017 s⁻¹
- kon [6]: 93600 M⁻¹ s⁻¹

B2: SC50-3 Fab (Fab, V domains shown)
VH: QSVKESEGGLFKPTDTLTLTCTASGFSLNGYGVIWVRQAPGKGLEWIGSAGAYGRIYYPNWARSRATITRNTNLNTVSLKMTSLTAADTATYFCARRTNVSTSVGFDSWGPGTLVTVSS
VL: DMTQTPSSKSVPVGDTVTINCQASESVYSNNRLSWFQQKPGQPPKLLIYLVSTLASGVPSRFKGSGSGTQFTLTISDVVCDDAATYYCVGYKSSTTDGLAFGGGTEVVVK
- Kd [7]: 411 nM
- koff [7]: 0.0147 s⁻¹
- kon [7]: 35800 M⁻¹ s⁻¹
- Kd [8]: 362 nM
- koff [8]: 0.0176 s⁻¹
- kon [8]: 48500 M⁻¹ s⁻¹
- Kd [9]: 194 nM
- koff [9]: 0.0247 s⁻¹
- kon [9]: 127000 M⁻¹ s⁻¹
- Kd [10]: 336 nM
- koff [10]: 0.0243 s⁻¹
- kon [10]: 72200 M⁻¹ s⁻¹

B3: SC1-1: Fab of rabbit monoclonal antibody that recognizes 1-pHis (antibody, V domains shown)
VH: QSVEESEGGLFKPTDTLTLTCTASGFSLSGHGVIWVRQAPGKGLEWIGSAGAYGRIYYASWAKSRSTITRNTNLNTVTLKMTSLTAADTATYFCARRSDVGTSVGFDSWGPGTLVTISS
VL: B2 VL
- ka [11]: 97300 ± 551 M⁻¹ s⁻¹
- kd [11]: 0.00925 ± 1.33e-05 s⁻¹
- Kd [11]: 95.1 nM
- affinity to 1-pHis peptides, times weaker than the 1-pTza peptides [11]: two to four times weaker
- Kd [12]: 24.8 nM
- ka [12]: 81300 ± 347 M⁻¹ s⁻¹
- kd [12]: 0.00199 ± 3.19e-06 s⁻¹

Next, values leading:

- ka [11]: 175000 ± 1010 M⁻¹ s⁻¹
- kd [11]: 0.00494 ± 1.06e-05 s⁻¹
- Kd [11]: 28.3 nM
- affinity to 1-pHis peptides, times weaker than the 1-pTza peptides [11]: two to four times weaker
- Kd [12]: 16 nM
- ka [12]: 85100 ± 303 M⁻¹ s⁻¹
- kd [12]: 0.00136 ± 3.19e-06 s⁻¹
B4: SC50-3: Fab of rabbit 1-pHis monoclonal antibody, expressed with SC50-3 heavy chain and SC1-1 light chain (antibody, V domains shown)
VH: B2 VH
VL: B2 VL

- Kd [13]: 28.3 nM
- koff [13]: 0.00494 s⁻¹
- kon [13]: 175000 M⁻¹ s⁻¹
- Kd [14]: 16 nM
- koff [14]: 0.00136 s⁻¹
- kon [14]: 85100 M⁻¹ s⁻¹
B5: SC50-3 Fab (SC50-3 heavy chain with SC1-1 light chain) (Fab, V domains shown)
VH: B2 VH
VL: B2 VL
